Drawing on paper PMC5353710, “Structural insights into the γ-lactamase activity and substrate enantioselectivity of an isochorismatase-like hydrolase from Microbacterium hydrocarbonoxydans” (Scientific Reports, 2017), this text covers stoichiometry N for one substance.

Usually stoichiometry N stands for a count of units in the complex or per binding partner.

This test addresses isochorismatase-like hydrolase Mh33H4-5540 from Microbacterium hydrocarbonoxydans (Microbacterium hydrocarbonoxydans). In words: SEC; gel filtration of purified MhIHL (Supplementary Fig. S1); conditions of this run not told in the main text. On the technique in general: In gel filtration, larger molecules generally elute earlier.

“isochorismatase-like hydrolase Mh33H4-5540 from Microbacterium hydrocarbonoxydans (enzyme)” registered a stoichiometry N of 2.
